Results on two molecules are retold here after patent US20180021430A1 (UNIVERSITAETSKLINIKUM FREIBURG, published 2018).

Experiment [1] deals with T1, recombinant CD40L, TNF homologous region of human CD40L (E108 to L261), produced as c-myc- and His-tag fusion … (human).
T1 construct: also called sCD40L; His-tag-CD40L fusion protein
T1 chain: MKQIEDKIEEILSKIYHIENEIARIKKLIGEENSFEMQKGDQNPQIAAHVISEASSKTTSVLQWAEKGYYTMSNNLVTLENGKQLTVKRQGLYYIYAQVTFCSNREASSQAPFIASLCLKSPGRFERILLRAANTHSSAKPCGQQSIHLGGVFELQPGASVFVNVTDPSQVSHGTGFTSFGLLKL
Description: solid phase competition assay: M7 against binding of CD40L to the immobilized I-domain. On the procedure: (§1) Solid phase binding assay. […] A mixture of equal molarities of all peptides served as the positive control in this assay.
(§2) The recombinant Mac-1 I-domain was immobilized in 96-well plates (Nunc) in PBS at 4° C. overnight. […] Binding was quantified by addition of TMB-substrate (Pierce), colorimetric reaction at 450 nm. […] Binding of the recombinant Mac-1 I-domain was quantified by addition of anti-His-Biotin monoclonal antibody (Qiagen), HRP-coupled streptavidin (Pierce) and colorimetric reaction at 450 nm. […] Kd was estimated using a one-site binding hyperbola nonlinear regression model with the Software Prism (Graphpad). […] A mixture of equal molarities of all peptides served as positive control. Absorbance on BSA-coated wells served as negative control and was subtracted.

For experiment [2], the target named is T2, recombinant Mac-1 I-domain, human Mac-1 (alpha M) amino residues R115 to S340, soluble His-tag fusion protein (human, UniProt P11215 131-356).
T2 construct: range 115-340; ~28 kDa; also called alphaM I-domain; not shown: C-terminal His-tag from vector pET20b
The experiment can be described thus: solid phase binding assay, one-site binding hyperbola; I-domain on immobilized CD40L, BSA wells subtracted. On the procedure: as §1, §2

What is called IC50 is the concentration that inhibits the measured activity by half. As a reminder, the Kd is the concentration at which binding is half-saturated.

T2 sequence (P11215 131-356): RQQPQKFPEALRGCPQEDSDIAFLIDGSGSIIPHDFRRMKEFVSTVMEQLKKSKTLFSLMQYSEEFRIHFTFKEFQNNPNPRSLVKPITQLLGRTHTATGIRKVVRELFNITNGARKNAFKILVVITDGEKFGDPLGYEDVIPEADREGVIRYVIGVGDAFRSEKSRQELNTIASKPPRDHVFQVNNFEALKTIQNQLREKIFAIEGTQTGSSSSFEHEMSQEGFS

B1: peptide M7 (EQLKKSKTL) (peptide)
peptide: EQLKKSKTL
notes: linear fragment of the Mac-1 I-domain, E162-L170
Turning to B1, the IC50 in experiment [1] is around 4 µM.

B2: CD40L without a His-tag (Provitro) (ligand)
chain: MQKGDQNPQIAAHVISEASSKTTSVLQWAEKGYYTMSNNLVTLENGKQLTVKRQGLYYIYAQVTFCSNREASSQAPFIASLCLKSPGRFERILLRAANTHSSAKPCGQQSIHLGGVFELQPGASVFVNVTDPSQVSHGTGFTSFGLLKL
notes: Bought protein; also called CD40L (Provitro); immobilized CD40L
As to B2, the Kd in experiment [2] was around 0.066 µM.
